{
  "source": "patent US20240018263A1",
  "binders": {"B1": {"name": "VH-9.7-CMYC-HIS6 (soluble, purified single domain antibody VH-9.7) (antibody, V domains shown)", "VH": "QVQLVESEAEVKKPGASVKVSCKASGYSFTNYYMHWVRQAPGQGLEWMGLIDPSGTSTTYAQKFQGRVTMTRDTSASTVYMELTSLRSEDTAMYYCVGEESGSGSFSDWGQGTLVTVSS"}},
  "key": {"[1]": {"target": "VH-9.7 antigen on human patient-derived glioblastoma stem-like cells (GSC lines 12.1, 22, 33, 44, 99)", "assay": "flow cytometry on cells dissociated from 44 GSC orthotopic xenografts, 125 nM predimerized VH-9.7"}, "[2]": {"target": "VH-9.7 antigen on human patient-derived glioblastoma stem-like cells (GSC lines 12.1, 22, 33, 44, 99)", "assay": "flow cytometry titration of monomeric VH-9.7 on live 33 GSC, one-site equilibrium fit, four independent titrations"}},
  "data": [
    {"binder": "B1", "values": [
      {"measurement": "percent of cells labelled", "setting": "[1]", "result": 17.9, "unit": "%"},
      {"measurement": "Kd", "setting": "[2]", "result": 74.3, "unit": "nM"}
    ]}
  ]
}
